Results taken from the DeepSol protein solubility set.

Experiment: soluble on expression in E. coli; label from the status in PepcDB or PDB records

Sequence	soluble on expression in E. coli
MAHHHHHHMCVPFKDQGQWIRQVALQVEEVAPSERGTDRPAAATPRHHMSVGVVDYYSKCGRICETVAVLCEEWMDSGYMDGFSSRLVKEANAGRSISDAPHRDAVFDSFCAPSPHCKKHAIFVRELDLALTTDTELRASIDADRPQEIETEEREMETMLHRLTREQGQSADVFSRDEIRRMKEAFVTGNKEDLQAVDPTAFDLTDDEFSTLKDYMHGEERKQQQQQRQRRPSAPSDADDL	not soluble
MAHHHHHHMDAFRSLTIGTKFSAARNEEAAKLFRNAGKDKGSHGFPDAIGADGAVTLENASDMGSSSLSVPPPSATLNLFGRPTRSHADANAHLGVSAGSDAAAAANTASENKALKAITFKKKRNIWRRNDLQVTGTDLPAPIEHFSDLVRPPLNVPRNVVNNLFARQHKVPTPIQMQAISSLIHHRDVLACAPTGSGKTIAFLVPLFALLKAPDASCGVRALIVTPTAELAQQIEREAFFLMKGQRWKFVQHGQTTKKKDIFIATPGRILSLLEQKLLDLSNVQYLVFDEGDRLWDSRTDFLTVIDRILTACTRTDKVVSLFTATLSEKVEAAARSVMGADPVRIIVHGRRSANTHVKQRLVFCGNELGKVVAMRNLVREGITPPVLVFVQSVERSKELYEEIRMEGLHMAIMHAKMTVEQREETVLQFRLGKIWVLVTTELLARGIDFKNVGTVINFDFPATVDSYIHRVGRTGRAGKEGTAITFFTEDDKERLPPIAKVMQDSGNAVEDWILGIKVDRSTRRRLERTTPQRTIVSTRKRMLVAQQRVQRQYRRLEAEKAAKQASKRSKGCGDCDRDDGDDSTDDA	not soluble
MAHHHHHHMDEGDHSDKESVGEEIVGEDHVEDKDGKPKRSYEKMVEEIKIENSKSFISKISEPLLKKKYFKYFLKILDYAYYAKVTAMQIIKTNEQIEERKKKILKNKFVVIGITQVVKAIRKGVDGIVFLAIDVFPIDIICHMPVFCEEHKIPYTFVTTKNKLARLCKLKRSVTCLFLPKPNIDIDKFEATVNEFSSKKKISNYAKLYEKMLSGVKKNHPFFQS	soluble
MAHHHHHHMDRRHLELEDAQERASAEEVATQASAEHKHYMNDSDEDSDEENGIDDEQSASLVAMLRTQEEIDSAIAGFTKGTRMLLASSGNGYVSYLDGSVHFTIAKVESHNASNREKVMQALAGTNVAMPTAEEYSLEEVRQAMHDRDTARKKLDALRALQDPTYTARIRSAEKDTYGTPVQQLMEEDGDMSALVANCEDAKRFAESVRKAYNSRAAASAHALACALCTPPFTAEQESTSEAQAPAGKMANAEDGVSQPTGANSPSSSTSAQ	soluble
MAHHHHHHMDSQTPHGDVVDEATMAVLPEHGLIFSEIKQMQLLLCKPKLLPVKSYSLEKLEKMEKKLAREAKEKRDANRAQRQAPLVWTSPDLTAGEGVKTIPAPSPLVTVAPAPPQNVASTPLRDGGATPPSAAPAVASSASSRGAASQETLSFTPVHTEGETCADASMSAPERSPRISPSTDVSSSSPSPSASTTD	soluble
MAHHHHHHMDVKEYTHNIIDIDISNHIKIRSSNNYNNKKLKETIRQNAKKIRDITFKYWIKEKQLQSGNFVINDENINDKMIIENKKDIINNINNDKKISYSYVDSFQTCVTNSKDEEGVLYIDDLYTYLIRQLYILFCSLEVRKKKNNVQFDFTRIYKYTYNYKKLESHISYEYLKKYDINDDIIKNDIENFHFYAYDHNIEDPKKYCDMEENYNNANYNICIYLPTKKEIDILFIIDQLYDYFYFVLYVPITTKEKDLIFFPFNIKNNLLVQYHFNIFIPYDYIYYTTYKKMNNFILNYSKIVKNYELSNSLYKHNDTIILIPLIAYNKLGYRIGSGKGYYDKTLTKTRKKNDIIKQIKNIQMNDNIITNNKDHDIQKENHLYLGTKNDTNNIICSNVKNIKHKTFNNEIEIYTQNKQKIYFNEIKIGVSFEMFLYDIDFSETTDLILDYMINENNIYHFIL	not soluble
MAHHHHHHMEAGTSPIRAGSSDGGGSVRGDIFRRHSVNSGENNMNDNKDNDSNTEWSEQFRLIARRMSRALLRNPHPDVQTDKRVMYGVLYELFEQWSERQQRAHSVSLTVEQVGSILRYGEQTLRQASLTAPALNKAQVVVDLIAASPLITIGALTQELRGLQPPVVLTPMAEVLELARLLDVSQGVRTPVGAVNLVHFIALSSTLCPAPDMGALLLLVASNVKRCHLLCAAIYYEWAMIDAQNREGLLLLSRELEEKHQQMCEGFTVDILTPLLTGSFEPFGARPTDPVAVDYLGMGSLPCTGTAEEQQRCHQLAPPSGNELEPTCEDSDTGGHGEGDCESSVEDEYDSDCRDTVDTEFWLRLSS	not soluble
MAHHHHHHMEDMYEMQHSNLRCLPENYNLRYYYYHLLSWPQLLYVQQDYNRNTVGYVLGKMDDEEVPDKKHGHITSLAVLRSHRKLGIASRVMRATMKEMDAEYGAHYCSLHVRKTNDAALHLYQDTLGFRCVGVEEKYYMDEEDAYHMKSFFHQANPGSYVDDHKRLIRKTVPGELEGGPAAAGASSPAVGGRGGDKNGKRGNDKAAKEISAKEREAAMAELLGLEVGGKGRAAGGGAGGKGKSGNSSGGGGKRGSGRQK	soluble
MAHHHHHHMEGSSGHLKSTAVAHNDGQALPPAAGAGHAPPTSNAAAGQQKTDQPPIAAVPVMSVAERAAATAEAERALSLLCTIRAVRRQTEELTVLLLHACGEWGCWSVPTAEEGVACETTRTPLPSSPLPGRIRHSQHLFADLFVAAPLAPTAFCTSSSVSLVGVSDGTAKADLLDLSAGEDADPARLSAASVFAKESACRRERACQALRQALQQQQQRWSLSTAAAATATLAAGAAFLEMALAPPQRAVPPPPPMSVQLDLYAVQPCALQRSIQEWRPRAAQTTAAGATKAGGTSPPEEAASLHCSLQQLLHTLGRQGPQLQSSYDVLHAAAGQRHRTNTRSCTDEQRGVPPREATTGVIKAAEARAVVHKTHGTSAAASDAPQEVEVPPLPSSSSPLAVAPDTLRRTPSSLPRQHSSTTPSSSSQALPSSDTLLSSPVQLAVDHTRLWADPPTPLQRADFSCAAAAAPTSTEISERGARIPVHQAGRSVLEDASSHRTKGKPELEAHVEVEVIGGNADGSHAAAGASSSNSTQVTNMRRTSLSSSTFFHSPVAVDARGGVVGALREVYEASWQPCSNARPSTRPEAAHAVAVAEEKLASQHQEERRSRRCDRGGSATAVELEDSVRRHLTRWMSQQPNDRAWVSGGPGLGPASFLLDPIRHAPGSSRAATRATDATAPALGQGAGRDRRGSRRAVHSGVRVDPIREHAREEGAGAGTESPLDAWPRPGARTAGPRGPGCSRSAAEMSELQLCMCVLLA	soluble
MAHHHHHHMEKYEFPEDYVNPRNIPRIAYIPDVAAYVSNGGGADTVISNLLMESSKYEHMEKRLVSSLANLDYKIPTIKKTLNSLEFLQKQLEEAEQQEEDGKRAGIRSYYCLTDSVFGEAIVRPQKTVHLWMGAKVMVEYTFEEASALLKKNLSNAEVNMRNTKEDLAWLQEQITNLQINISRVYNYDLKNKRAKD	not soluble
MAHHHHHHMEPYASPAAVPPPHVVYDALSKAQKAAPQLRPIPAFEVYKVAREEELAAYRMLCRVLFMHHGTPLPKAQQRILDDMGEDLCIGQTRQGLEKEMAEQDKVLQGIRKSGVLRRRGDFTDGVEEMTVEDYLAEAPKDDGNGLFMPTSKVRRVDGADSGATRATVIAAAAGLGAKRKGNVHAAVSKLAKEAETAGKSLLYASSAQEEQQLIQVLQQKRELLVALREELTEA	not soluble
MAHHHHHHMEVKEVQPQKRLQPACDAKGENGFPLTIPCERQKVANLAPHRPLRRFLEAMRADNQNLCALKGSAVHHLKKDLRGDEKQVVLSCETPSRSNRLREKYECMKKMRFNETQEALARECDLSRIIIELQKRIEDAEASREFEREVHARESFYLLKENECLKEQVRTTEKMLLDVRNNYNLEISKLNTRVSDLEDSLVAEGQRAKTREAEQERAIQNLCSNLYTTQGELERYVEKNRELASVNSLLEEMRAESWRDKRECTVWYEVLRRREVFMLLEREAFTELQCLCMQEMNRFWQIKDDSYQAMFCSEAERFLGHIIREAEICYEMKQLMFDNATASIEKETWISLHFSKVQELSRLSEKHEALSILLAQYMREVEEIQQGNLEQVLRRKTVDDASIAYMLHQRDNEVSDKLRTWKGALQEAHKLLTALLKRYEPFQRGDEVFVGRVMEWLISAPHVKEVINVFLP	not soluble
MAHHHHHHMFAALSWLLDLDQGHAASSSSTSSCSSYSGSLDADAGVETDPAANHTTFSDAGGQLLAELHISSVAAATLSRSASEAAAPPRGAVYSSARHLEESFADLEARKAEFFAPSPCQEPAEDAGLGLSSLTERGGTPVSPLSCKIVPLGSLCAYANETVSLSPIASPVPAPVSATVATLLAPTHEDERLLLVSEGVMLSARLSSPSRGGPRAAAERAKITNNDGSATGAMGAGVAAPTQRSRILDWDREMHARPQASPPPGLSANRGERAVRSGTGVQERSEQIADAEPGEARLVRGAMKAAFMLSTPPHTPALGAAAFAPAAVPLHPSPPFLGTTVGARDAAVPGYSIERIHDTPAQEDSGVVYLADGLATVTSMDVGDLHRQAEQSSPPLTHPLAAQLTTPSHTKQPHFDFS	not soluble
MAHHHHHHMFHRHSFYEKGSSAPRDGAGAGADGTQAHGGAAGGSCNNGGTSSSSTASSQQQREQDERLYGMGSATAQQRRQVRQQWEKSFFGRLHYEEGMHDRFSEALKSEDAEAFRQSIAGQSHADLFPHWPEEEEAPLSEFKRLRPSLQLHYIVNRLSSGERRIRYSVDFGGLLMMPQLNLGEMMVKEADTLLRELGWMNDEVAMRIEEVQALASKIKFDFDLD	soluble
MAHHHHHHMFLTFVRHTPPKTPRNVFFPWQNFSIHKSGSFLEKNRLALRVPINLTKFEIREYLRKIYNAKVIKVNTLIKVPERRRNLTDFRFNYYRNGPRYKKAIITLEHEVPDSVKMIQSCKNIGRNPYITKKNVIYGVRSDVKITPTRSQLWQMGECRYSWRLPLTNLLADYKMNLNPDLRIDENLVQLAPDMTKPFMHSGISSQTFKPSSVPEQTFPKVIFFFFQKGDVLA	soluble
MAHHHHHHMFTLCKGYSEDEDEEEVKDIIDNLKEQKKSFEEKINYYKLKGNIERSHITIYTNLGEFQVELYWYHSPKTCLNFYTLCTMGYYDNTIFHRVIPDYIIQGGDPTGTGKGGKSIYGEYFEDEINTELKHTGAGILSMSNNGPNTNGSQFFITLCPLPHLDGKHTIFARVSKNMTCIENIASVQTTATNKPIFDVKILRTSTAVNVD	soluble
MAHHHHHHMGDNILDQKVDLFGGKGIFTKELDEELIKGKVHICVHSLKDVPMELPEQVQLSCFLKRDTINDAFLSVKYGTLEDMNKMKMANKMEEGSYQPKGMSQRVINQNVKRDNYEGDHYDNFIPTIGTSSLRRSSQIKYKYKNVAVKNMRGNINTRIAKLCNGQYDAIIIAKCGLERLTTKKGIRNIIGGKNKVTPKNFLINYNNTEINLTSLHIQQINKRTIYPALCQGIIAVSSHKSDKYISDVLKNINDEKAQIMANIERSFLYQIEGNCMMPIGGYAKIVNGEIVFNAVINDIHGREKYHVREVGKVESYNEIAVMAATKMKEKIGTHRFNKIREEAAQYYA	not soluble
